From the DeepSol protein solubility set

Test: soluble on expression in E. coli; label from the status in PepcDB or PDB records

Row | Sequence | soluble on expression in E. coli
1 | MGGWEEREIRGHSLGHWLSAAAAMYETTGDKALLERIDRAVQELATIQDDVGYVGGVKRAHFDEMFSGEFQVGHFNIAGTWVPWYNLHKLFAGLIDVHQLTGHSLALTVVTKLADWAKKGTDQLTDDQFQRMLICEHGGMNEAMADLYTLTGHKDYLQLAIRFCHWAVLEPLANGIDELEGKHANTQIPKVIGAAKLFEITGDDTYRAIAEFFWRQVTNDRSYIIGGNSNSEHFGPANKETLGVETAETCNTYNMLKLTEHLFRWNRSSQLMDYYEKALYNHILASQDPDSGMKTYFVSLQPGHFKVYSSLEESFWCCFGTGLENPARYTRTIYDRDDRHIYVNLFMASEIHLKDLQVQIRQETNFPETDRTKLTFVKADGVSIKLHIRVPEWVAGPVTARINGKETFSESGADYLTIEREWQKGDEIEVHLPMELRIYEAKDDSHKVGIMYGPIVLAGTFGKDHFPETDIVPNHLSLHNHPLIDVPTLVATKKTPDQWIHPVEGRSLTFRTAAIGQPGNVQITLIPFYALHHERYTVYWNLMSEVEYEAFKARKEVESDQLQARTVDAVQPGEQQPEVEHQLKANHSETGYLNIMQKRWRDSRGEDGFFSYVMKVKPNQQMSLFVTYYGGDHGLFVDGKWCDRSFRILIDDEVIKEEQLLGKNPGETLDVYYPIPLALTEGKEEVVVTFASKEGTVAGGVYGVRMLCNLEHHHHHH | not soluble
2 | IGEFSYSLNGNLSYAHNRILSRTQADNTLPWQSVLGSSVGELWGLKALGLYQSEEEIANSPQVSWNTPRVGDIKYADINGDGKIDSNDRIKISRGIRPEMMFALMADANYKGFDLSVQFQGAALCDKMLQYSWQDLNGATDMTPMTRPWYANWDNAPLYLVENSWRPDHTNAEYPRLTVSSVSHSNNAQQSDFWKRNGAYLRLKNVTLGYTLPKAWTNKMGLSNIRVYANGTNLLTFTDFKYIDPESTNVATGYYPQQRTFSFGIDVRF | not soluble
3 | MSRPPLPPFTRETATQKVRMAEDAWNSRDPARVSLAYTPDSRWRNRAEFLQGRDAIVEFLTRKWAKEHDYRLIKDLWAFDGRFIAVRFQYEWRDEAGLWYRSYGNEQWEFDDDGLMRRREASINDVAISEGDRRFHWPAPGPRPDDVPGLAADPFLEHHHHHH | soluble
4 | SGRPIEDVRDRQRLADATATVHETRLALHHGRGNIESDFRLSNGRSSTCSYLSYSFLSYWPGKHDINLMAGCALAVSAGNCDQNAAINTRRHAARMEGGGQITNVCDQACAHMYALYQPPGSAEAQDSAVVLDSWSDGPAVLLRDSRWAGTYHRTSTYPIERFDKPGAIDALARTRALQAEIEDPQTEFHAHLRGVESVVRTPPVPRKIYASTP | not soluble
5 | MSLRVRIAVIGKLDGFIKEGIKHYEKFLRRFCKPEVLEIKRVHRGSIEEIVRKETEDLTNRILPGSFVMVMDKRGEEVSSEEFADFLKDLEMKGKDITILIGGPYGLNEEIFAKAHRVFSLSKMTFTHGMTVLIVLEQIFRAFKIIHGENYHYEGGSHHHHHH | soluble
6 | QSQGVLSSFPAPQAVQDNPAMPTSSGSEGNVKLCSLEEAQRIWKQKSAEIYPIMDKSSRTRLALIICNEEFDSIPRRTGAEVDITGMTMLLQNLGYSVDVKKNLTASDMTTELEAFAHRPEHKTSDSTFLVFMSHGIREGICGKKHSEQVPDILQLNAIFNMLNTKNCPSLKDKPKVIIIQAARGDSPGVVWFKDSVGVSGNLSLPTTEEFEDDAIKKAHIEKDFIAFCSSTPDNVSWRHPTMGSVFIGRLIEHMQEYACSCDVEEIFRKVRFSFEQPDGRAQMPTTERVTLTRCFYLFPGH | soluble
7 | MAHHHHHHMENIKLGFMGLGQMGSALAHGIANANIIKKENLFYYGPSKKNTTLNYMSSNEELARHCDIIVCAVKPDIAGSVLNNIKPYLSSKLLISICGGLNIGKLEEMVGSENKIVWVMPNTPCLVGEGSFIYCSNKNVNSTDKKYVNDIFNSCGIIHEIKEKDMDIATAISGCGPAYVYLFIESLIDAGVKNGLSRELSKNLVLQTIKGSVEMVKKSDQPVQQLKDNIVSPGGITAVGLYSLEKNSFKYTVMNAVEAACEKSKAMGSK | soluble
8 | SLRRVLMLEGCAQPTLSPNTNAATARVLDRLGISVMPANEAGCCGAVDYHLNAQEKGLARARNNIDAWWPAIEAGAEAILQTASGCGAFVKEYGQMLKNDALYADKARQVSELAVDLVELLREEPLEKLAIRGDKKLAFHCPCTLQHAQKLNGEVEKVLLRLGFTLTDVPDSHLCCGSAGTYALTHPDLARQLRDNKMNALESGKPEMIVTANIGCQTHLASAGRTSVRHWIEIVEQALEKE | soluble
9 | MAHHHHHHMGTLEAQTQGPGSMDFRIGQGYDVHQLVPGRPLIIGGVTIPYERGLLGHSDADVLLHAITDALFGAAALGDIGRHFSDTDPRFKGADSRALLRECASRVAQAGFAIRNVDSTIIAQAPKLAPHIDAMRANIAADLDLPLDRVNVKAKTNEKLGYLGRGEGIEAQAAALVVREAAA | soluble
10 | MSLWKSMTYYQKMIQEPSREKLLPDPLKYPYVQPPYTLVLEMKDVLVHPDWTYQTGWRFKKRPGVDKFLETLAANYEIVVFTADQGMTVFPILDALDPRGYIMYRLVRDATHFVDGHHVKNLDNLNRDLSKVIVVDWDPNSTKLHPENTLNIPRWTGNDDDAGLFDLMAMLVTIATSEVEDVRDVMTYYKSFENPLVKFRENQRLLAEQMAEREHEEKQRNLPAVQRWRPSFLEGHHHHHH | soluble
11 | SNAMVKDRQIQKTKVAIYNAFISLLQENDYSKITVQDVIGLANVGRSTFYSHYESKEVLLKELCEDLFHHLFKQGRDVTFEEYLVHILKHFEQNQDSIATLLLSDDPYFLLRFRSELEHDVYPRLREEYITKVDIPEDFLKQFLLSSFIETLKWWLHQRQKMTVEDLLKYYLTMVER | soluble
12 | MATMLSRYFLLTVAALFAQSASAIEVLTSIKPIQMITYELMLGTGTPDVLLPSGASPHDYALRPSDVKRIQQADLVIWFGQDLEPFMSKLLEGRTSALTLSQVPNLALREYGEEEQHEHDGHHHGHYDPHFWLGIGPVGQVASAITAKLIELDADQQQQYQDNLVRFLANLAEQDNTIGEKLKPVTTVPYYVFHDAYGYFEQHFALNNLGHFTVSPERKPGAKTLIAIKKTLNDQLAKCVFSEPQFEPAIIETVVRGTSAKIGVLDPLGISIELQAGSYFAFLNSLAESYYACLSQS | not soluble
13 | SSLCERAASGSALLWPRVLLFGDSITQFSFQQGGWGSLLADRLVRKCDVLNRGFSGYNTRWAKIILPRLIRKGPGMENPVAVTIFFGANDSSLKDENPKQHVPLDEYSANLRDMVQYLRSVDVPRERVILITPPPLCEAAWEKECVLKGCKLNRLNSVVGEYANACLQVARDCGTDVLDLWTLMQKDSQDFSSYLSDGLHLSPMGNEFLFLNLCPLLDKKVSSLPWLLPYWKDVEEAKPELSLLGDGDY | soluble
14 | MINKLKENIGSVFVGKENVIDLLLVSLLADGHVLLENVPGTGKTLLAKTISKSIGGSFSRVQFTPDVLPSDVTGIEYFNPKTSEFELRIGPVMTNILLADEINRAMPRTQSSLLEAMEERQVTLEKQSTPLPKPFFVIATQNPIESQGTFPLPDAQLDRFLMTISIGHPTPKDELQMMRRFRNDLPLESVTSVISLEDILEAQKRVKEIFVSEPLEHYIIKLAHATRNHDYIANGVSPRATLALVRAVQALAFLRGREYCTPEDIQLLVPSVWNHRIVLSMEGALRTTKNDIMQSILKEVDVPVEIEQA | not soluble
15 | MEKNWYVVHTYSGYENKVKANLEKRVESMGMQDKIFRVVVPEETETDVKNGKRKTTKKKVFPGYVLVEMVMTDDSWYVVRNTPGVTGFVGSSGAGSKPTPLMEEEVKMILKRMGMPLAEVDVDYEVNETVRIKEGPFANFTGKIEAIDPDKHKVKLLVDMFGRETRVELEFSQIEKI | not soluble
16 | MGSDKIHHHHHHMNEREICERIAEILNLEHDCSKGIDDLLKILEYEINEYRKSLEEQAMFMEAQIEELSRSYEEISTLLEISEIFGTFEFPLNLQDKLEKVIRLLRNVIKFESYLVHLESELTVGDLNREEIEPEIGNPEKTVLIEPGKSEKFSNLLFVPIKGNKYYGYVCFVGKEDGGVFTAGDRKIAEMTARYIASALDRLDFLKKEIERERLEEQLNIARQIQTNLLPRKIPEIGFVEADACSQPAVQVGGDYYDFFVSQEKRFLTVVGDVAGKSVPAALLMSAVRSYLKVLVTTCPDLEKLVNRLNTILCEDMTNDRFVTMAFIEISPDGTLNLINAGHNPVYFLHKGELVKIEASAIPIGITEWEYKKHTIHLKPDTFVISYSDGLTEARNEAGEEFGYERLEKILREFKGETPAELLEALRKRVKSFMGDAQQHDDMTIVVLKYKGQQEVE | not soluble
17 | MGSDKIHHHHHHMFNLTKAFLKEVPTNAEVTDFHEVHGGDINKAYSLTDAQGGRYFLKVQPNSVLAFFQHEADGLKLLGQAARVPKVIALGHVGQDQWLLLEYLNATNYGNQYSLGQDLAKIHSITSPNGQFGFDKDFKAGKTSKINTWQSSWYEFFVKQRLNVLRELLINEGKWNDDQNYKKAIEIFQSLMEKHDSRPSLLHGDFWSGNFMFDADSGQPIFIDPDVYYGDPEFDIGITTVFGGFNQDFYVGYQSTKPFQSGAERRLMFYQLYYLMVHAHLFAGSYIQAYRGKLAQIIQQ | not soluble
18 | MFNCLTKLVILVCLKYVAKALLNRSTGLIMKDKPEGVHHIKSCSDSSSRIWYSLWMNIAFCGGLGPTSIFDPCFLTSSAPSPPSAPALAIPAAAPPLPTSVPAGAGVEAGAGAETVSSSLMIFSSFFLYN | soluble
19 | MRGSMGAMHVLTLDLAPVTPKDAPLLHRVFHLSPSYFALIGMELPTLEDVVRDLQTLEVDPRRRAFLLFLGQEPVGYLDAKLGYPEAEDATLSLLLIREDHQGRGLGRQALERFAAGLDGVRRLYAVVYGHNPKAKAFFQAQGFRYVKDGGPTLTWYVRPL | soluble
20 | MAHHHHHHMGTLEAQTQGPGSMDKTLDKQVAIVTGASRGIGRAIALELARRGAMVIGTATTEAGAEGIGAAFKQAGLEGRGAVLNVNDATAVDALVESTLKEFGALNVLVNNAGITQDQLAMRMKDDEWDAVIDTNLKAVFRLSRAVLRPMMKARGGRIVNITSVVGSAGNPGQVNYAAAKAGVAGMTRALAREIGSRGITVNCVAPGFIDTDMTKGLPQEQQTALKTQIPLGRLGSPEDIAHAVAFLASPQAGYITGTTLHVNGGMFMS | soluble
21 | MLKVEKFKKLKRFEVYYCLKNSFLEEVDIEMKYSCSITTIMSNGSASLLMNWEELTPGHCFTSYTTNPIAGDYGLNASAIDGHTEELVATHPAGTLENATQ | not soluble
22 | MADGMGNLIGWEKTGLVVGKQWITAKDDKVSDVCNANGEMGVIGLYEPFSHGALTIPGHPNCRCEVVSVSGGELGEFAEKKELRKAAMQYARDNFIGKSYVNKNSGHELKVTWQGVKHAASKANQAELSIMTKLDDLLRYAKYEGSYSDRKGHPNIIAAHKYRAVAKVGNESLNIGVIVREFPDDHKHYDHFILKDE | not soluble
23 | MVPELMFDEPRPGRPPRHLADLDAAGRASAVAELGLPAFRAKQLAHQYYGRLIADPRQMTDLPAAVRDRIAGAMFPNLLTASADITCDAGQTRKTLWRAVDGTMFESVLMRYPRRNTVCISSQAGCGMACPFCATGQGGLTRNLSTAEILEQVRAGAAALRDDFGDRLSNVVFMGMGGAAGQLRQGVGRSSAHYRAAAVRFRDFGPRGDGVDGGSGPCYPQPCRRAARRDPGAVAARPRRRVARYTSSGQQPVEDQRSARCGPVLRQCDRATGVY | soluble
